Read-outs that look alike come from different tables or passages of the source.
Columns and labels:
[1] = target: N-FkpA (N-terminal domain of FkpA) (E. coli) (UniProt P45523); assay: AUC
[2] = target: unfolded transmembrane β-barrel of outer membrane protein A (uOmpA171) (E. coli) (UniProt P0A910); assay: AUC
Target sequence in this assay (P0A910 22-192): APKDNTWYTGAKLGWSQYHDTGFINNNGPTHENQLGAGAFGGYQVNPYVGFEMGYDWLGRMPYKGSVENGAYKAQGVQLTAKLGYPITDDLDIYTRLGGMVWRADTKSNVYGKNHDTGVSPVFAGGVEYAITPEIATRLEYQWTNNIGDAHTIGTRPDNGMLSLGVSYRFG

[3] = target: unfolded outer membrane protein X (uOmpX) (E. coli) (UniProt P0A917); assay: cross-linking
[4] = target: unfolded transmembrane β-barrel of outer membrane protein A (uOmpA171) (E. coli) (UniProt P0A910); assay: cross-linking
[5] = target: unfolded β-barrel assembly machine A (uBamA) (UniProt P0A940); assay: cross-linking
[6] = target: unfolded transmembrane β-barrel of outer membrane protein A (uOmpA171) (E. coli) (UniProt P0A910); assay: AUC; remark: listed apart in the source
Target sequence in this assay (P0A910 22-192): as above

[7] = target: FkpA (full-length, dimeric form) (E. coli) (UniProt P45523); assay: AUC
[8] = target: unfolded transmembrane β-barrel of outer membrane protein A (uOmpA171) (E. coli) (UniProt P0A910); assay: AUC; remark: listed apart in the source
Target sequence in this assay (P0A910 22-192): as above

[9] = target: unfolded transmembrane β-barrel of outer membrane protein A (uOmpA171) (E. coli) (UniProt P0A910); assay: AUC; remark: listed apart in the source
Target sequence in this assay (P0A910 22-192): as above

[10] = target: unfolded transmembrane β-barrel of outer membrane protein A (uOmpA171) (E. coli) (UniProt P0A910); assay: AUC; remark: listed apart in the source
Target sequence in this assay (P0A910 22-192): as above

Substance | stoichiometry N [1] | Kd [2] [nM] | crosslinking efficiency [3] [%] | crosslinking efficiency [4] [%] | crosslinking efficiency [5] [%] | Kd [6] [nM] | stoichiometry N [7] | Kd [8] [nM] | Kd [9] [nM] | Kd [10] [nM]
N-FkpA (N-terminal domain of FkpA) (from UniProt P45523 26-270) (domain or fragment) | 2 | 44000 |  |  |  |  |  |  |  | 
FkpA pAzF variant Y225pAzF (from UniProt P45523 26-270) (natural protein) |  |  | 81 | 83.2 | 81.8 |  |  |  |  | 
FkpA (full-length, dimeric form) (from UniProt P45523 26-270) (natural protein) |  | 1100 |  |  |  | 2900 | 2 | 400 | 8 | 700
